B1: CD26-01D scFv (scFv, part only; not given: VL-VH linker and detection tag, V domains shown, not shown: another chain or arm of the molecule; small tags and cut ends)
VL: DIQMTQSPSSLSASVGDRVTITCRASQDVNSNVAWYQQKPGKAPKLLIFGSGGLYSGVPSRFSGSGSGTDFTLTISSLQPEDFATYYCQQYSSYPLTFGQGTKVETK
VH: EVQLVESGGGLVQPGGSLRLSCAASGFTINDSYIHWVRQAPGKGLEWVAWIWPYGGFTYYADSVKGRFTISADTSKNTAYLQMNSLRAEDTAVYYCARFLGSSSIMDYWGQGTLVTVSS
B2: CD26-12D scFv (scFv, part only; not given: VL-VH linker and detection tag, V domains shown, not shown: another chain or arm of the molecule; small tags and cut ends)
VL: DIQMTQSPSSLSASVGDRVTITCRASQDVYSWVAWYQQKPGKAPKLLIYGPGSLYSGVPSRFSGSGSGTDFTLTISSLQPEDFATYYCQQYYNYPLTFGQGTKVEIK
VH: EVQLVESGGGLVQPGGSLRLSCAASGFTINSSYIHWVRQAPGKGLEWVAGIGPYWGFTSYADSVKGRFTISADTSKNTAYLQMNSLRAEDTAVYYCARFYSSYGFMDYWGQGTLVTVSS
B3: CD26-03B scFv (scFv, part only; not given: VL-VH linker and detection tag, V domains shown, not shown: another chain or arm of the molecule; small tags and cut ends)
VL: DIQMTQSPSSLSASVGDRVTITCRASQDVYYFVAWYQQKPGKAPKLLISWPTGLYSGVPSRFSGSGSGTDFTLTISSLQPEDFATYYCQQYFSYPITFGQGTKVEIK
VH: EVQLVESGGGLVQPGGSLRLSCAASGFTIGNSYIHWVRQAPGKGLEWVAGIGPYWGFTSYADSVKGRFTISADTSKNTAYLQMNSLRAEDTAVYYCARFNGSSGFMDYWGQGTLVTVSS
B4: CD26-03G scFv (scFv, part only; not given: VL-VH linker and detection tag, V domains shown, not shown: another chain or arm of the molecule; small tags and cut ends)
VL: DIQMTQSPSSLSASVGDRVTITCRASQDVSSSVAWYQQKPGKAPKLLISYPGWLYSGVPSRFSGSGSGTDFTLTISSLQPEDFATYYCQQFGDFPMTFGQGTKVEIK
VH: EVQLVESGGGLVQPGGSLRLSCAASGFTIGNYGIHWVRQAPGKGLEWVAWIGPYGGYTFYADSVKGRFTISADTSKNTAYLQMNSLRAEDTAVYYCARFNNLLWNGMDYWGQGTLVTVSS
B5: CD26-04E scFv (scFv, part only; not given: VL-VH linker and detection tag, V domains shown, not shown: another chain or arm of the molecule; small tags and cut ends)
VL: DIQMTQSPSSLSASVGDRVTITCRASQDVNDGVAWYQQKPGKAPKLLIYWASYLYSGVPSRFSGSGSGTDFTLTISSLQPEDFATYYCQQSWNFPLTFGQGTKVEIK
VH: EVQLVESGGGLVQPGGSLRLSCAASGFTINDGFIHWVRQAPGKGLEWVAGIWPFGGSTSYADSVKGRFTISADTSKNTAYLQMNSLRAEDTAVYYCARFDVVDWGVMDYWGQGTLVTVSS
B6: CD26-01F scFv (scFv, part only; not given: VL-VH linker and detection tag, V domains shown, not shown: another chain or arm of the molecule; small tags and cut ends)
VL: DIQMTQSPSSLSASVGDRVTITCRASQDVWGYVAWYQQKPGKAPKLLIFSSRSLYSGVPSRFSGSGSGTDFTLTISSLQPEDFATYYCQQYFNWPITFGQGTKVEIK
VH: EVQLVESGGGLVQPGGSLRLSCAASGFTISDYSIHWVRQAPGKGLEWVASIWPYGGFTSYADSVKGRFTISADTSKNTAYLQMNSLRAEDTAVYYCARFHSSSGDMDYWGQGTLVTVSS
B7: CD26-01G scFv (scFv, part only; not given: VL-VH linker and detection tag, V domains shown, not shown: another chain or arm of the molecule; small tags and cut ends)
VL: DIQMTQSPSSLSASVGDRVTITCRASQDVNNSVAWYQQKPGKAPKLLIFSPTGLYSGVPSRFSGSGSGTDFTLTISSLQPEDFATYYCQQYFDFPLTFGQGTKVEIK
VH: EVQLVESGGGLVQPGGSLRLSCAASGFTIGNYGIHWVRQAPGKGLEWVAWIGPSGGYTFYADSVKGRFTISADTSKNTAYLQMNSLRAEDTAVYYCARFDVHGFHGMDYWGQGTLVTVSS
B8: CD26-07H scFv (scFv, part only; not given: VL-VH linker and detection tag, V domains shown, not shown: another chain or arm of the molecule; small tags and cut ends)
VL: DIQMTQSPSSLSASVGDRVTITCKSNQNLLYSHGRTYLNWYQQKPGKAPKLLIFGTSHLYSGVPSRFSGSGSGTDFTLTISSLQPEDFATYYCYQGYHVPFTFGQGTKVEIK
VH: EVQLVESGGGLVQPGGSLRLSCKASGYTFARFGMYWVRQAPGKGLEWVAFIAPNHGYTFYADSVKGRFTISADTSKNTAYLQMNSLRAEDTAVYYCARGHWYHGYMDYWGQGTLVTVSS
B9: CD26-04A scFv (scFv, part only; not given: VL-VH linker and detection tag, V domains shown, not shown: another chain or arm of the molecule; small tags and cut ends)
VL: DIQMTQSPSSLSASVGDRVTITCRASQDVSGGVAWYQQKPGKAPKLLIYGTSGLYSGVPSRFSGSGSGTDFTLTISSLQPEDFATYYCQQGGDWPITFGQGTKVEIK
VH: EVQLVESGGGLVQPGGSLRLSCAASGFAINNYSIHWVRQAPGKGLEWVASIWPYGGFTSYADSVKGRFTISADTSKNTAYLQMNSLRAEDTAVYYCARFFSSYGDMDYWGQGTLVTVSS
B10: CD26-10B scFv (scFv, part only; not given: VL-VH linker and detection tag, V domains shown, not shown: another chain or arm of the molecule; small tags and cut ends)
VL: DIQMTQSPSSLSASVGDRVTITCRASQDVWGYVAWYQQKPGKAPKLLIFASGALYSGVPSRFSGSGSGTDFTLTISSLQPEDFATYYCQQYFNWPITFGQGTKVEIK
VH: EVQLVESGGGLVQPGGSLRLSCAASGFTISDYSIHWVRQAPGKGLEWVASIWPYGGFTSYADSVKGRFTISADTSKNTAYLQMNSLRAEDTAVYYCARFHSSSGDMDYWGQGTLVTVSS

Key:
ProL/A-HRP [1] = experiment: ELISA screen of scFv clones, plate panel 'ProL/A-HRP' (scFv quality check)
[2] = target: Human CD26-Fc fusion protein (human); experiment: ELISA screen of scFv clones, plate panel 'CD26' (CD26-Fc fusion protein per paragraph 510)
Human CD26-Fc fusion protein (human), sequence (chain, as listed by the source): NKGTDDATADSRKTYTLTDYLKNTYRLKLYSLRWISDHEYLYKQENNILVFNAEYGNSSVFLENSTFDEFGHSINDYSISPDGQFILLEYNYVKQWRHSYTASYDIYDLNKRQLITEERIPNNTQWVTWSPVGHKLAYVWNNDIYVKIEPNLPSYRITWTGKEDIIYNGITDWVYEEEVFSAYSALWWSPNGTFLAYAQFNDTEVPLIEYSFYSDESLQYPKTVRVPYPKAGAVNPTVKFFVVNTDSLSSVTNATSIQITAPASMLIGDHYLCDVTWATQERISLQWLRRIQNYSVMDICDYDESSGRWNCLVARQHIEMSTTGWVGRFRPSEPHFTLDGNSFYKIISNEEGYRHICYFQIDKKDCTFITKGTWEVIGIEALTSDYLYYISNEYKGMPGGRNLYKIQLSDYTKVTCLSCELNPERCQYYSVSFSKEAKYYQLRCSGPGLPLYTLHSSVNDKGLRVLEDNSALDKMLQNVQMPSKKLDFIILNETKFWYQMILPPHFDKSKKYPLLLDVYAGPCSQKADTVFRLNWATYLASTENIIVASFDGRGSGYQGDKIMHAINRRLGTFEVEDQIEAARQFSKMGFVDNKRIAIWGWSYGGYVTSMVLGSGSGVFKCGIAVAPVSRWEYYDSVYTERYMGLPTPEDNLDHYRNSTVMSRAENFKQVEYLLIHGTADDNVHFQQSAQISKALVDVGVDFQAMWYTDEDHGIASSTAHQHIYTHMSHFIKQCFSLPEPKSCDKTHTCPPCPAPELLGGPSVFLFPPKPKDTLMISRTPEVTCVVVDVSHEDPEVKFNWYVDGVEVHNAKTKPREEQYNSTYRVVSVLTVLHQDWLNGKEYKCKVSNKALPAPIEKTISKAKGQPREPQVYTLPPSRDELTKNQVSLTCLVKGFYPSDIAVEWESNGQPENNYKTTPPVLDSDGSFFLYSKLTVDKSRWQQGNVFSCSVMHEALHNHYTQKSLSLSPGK

IgG Control [3] = experiment: ELISA screen of scFv clones, plate panel 'IgG Control'
IgG Control [4] = experiment: ELISA screen GH2 (HHJ), table P1-IgG, format IgG/scFv/Etag-HRP
ProL/A-HRP [5] = experiment: ELISA screen GH2 (HHJ), table P1-PrLA, format PrI/scFv/PrA-HRP
[6] = target: Human CD26-Fc fusion protein (human); experiment: ELISA screen GH2 (HHJ), table P1-CD26, format CD26/scFv/Etag-HRP
[7] = target: Human CD26-Fc fusion protein (human); experiment: ELISA screen, Plate2, panel CD26
IgG Control [8] = experiment: ELISA screen, Plate2, panel IgG
ProL/A-HRP [9] = experiment: ELISA screen, Plate2, panel ProL/ProA-HRP

| ELISA OD450 (ProL/A-HRP [1]) | ELISA OD450 [2] | ELISA OD450 (IgG Control [3]) | ELISA OD450 [7] | ELISA OD450 (IgG Control [8]) | ELISA OD450 (ProL/A-HRP [9]) | further results | Binder |
| --- | --- | --- | --- | --- | --- | --- | --- |
| 3.13 | 0.948 | 0.05 | – | – | – | – | B1 |
| 3.05 | – | 0.051 | – | – | – | – | B2 |
| 3.14 | – | 0.045 | – | – | – | – | B3 |
| – | – | – | – | – | – | ELISA OD450 (IgG Control [4]): 0.05; ELISA OD450 (ProL/A-HRP [5]): 3.16; ELISA OD450 [6]: 3.08 | B4 |
| – | – | – | – | – | – | ELISA OD450 (IgG Control [4]): 0.05; ELISA OD450 (ProL/A-HRP [5]): 3.08; ELISA OD450 [6]: 3.06 | B5 |
| – | – | – | 1.29 | 0.045 | 2.71 | – | B6 |
| – | – | – | 2.5 | 0.047 | 2.74 | – | B7 |
| – | – | – | 2.3 | 0.047 | 2.73 | – | B8 |
| 3.11 | 2.92 | 0.069 | – | – | – | – | B9 |
| 3.03 | 0.68 | 0.046 | – | – | – | – | B10 |

From US12497462
